Results published in US8691944B2, “Fibronectin polypeptides and methods of use” (The Research Foundation for the State University of New York, priority 2005, dated 2014).
Where no end group is shown, it is not given here.

Key:
[1] = biological target: T1, PDGF-BB (Homo sapiens, UniProt P01127); assay: Equilibrium binding of PDGF-BB to FN, FN domains and peptides
Text: (§1) This led us to speculate that PDGF was binding to the engineered ECM through the H or HV domain since vascular endothelial GF (VEGF), a member of the PDGF superfamily, had been reported to bind H and remain active while bound.
(§2) The survival of FN-null fibroblasts in the presence to PDGF-BB required substrate coated with intact FN or FNIII8-11+a PDGF-binding FN domain. […] To address this directly, we performed equilibrium binding assays with PDGF-BB to FN adsorbed to a surface or coupled to agarose beads. In addition, we also investigated the ability of other growth factors to bind intact FN.

[2] = biological target: T2, TGF-β1 (Homo sapiens, UniProt P01137); assay: Plasmon surface resonance kinetic binding of TGF-β1 to FN domains; conditions: plasmon resonance
Text: (§3) VEGF, TGF-β1, PDGF-BB and FGF-2 bound IIICS with similar affinities (KD˜10^−7 M). […] The tested biological activities of GFs bound to a FN functional domain were retained or enhanced. […] In addition, our studies provide important information regarding the delivery of GFs and the sequestering of GFs, as appropriate, for therapeutic (e.g., surgical) or aesthetic indications, including wound healing treatments (where an aim is GF delivery) and cancer treatments (where an aim is GF sequestration). Where FN fragments are used to deliver GFs, they may be described as maintaining, activating, stabilizing or enhancing GF activity.
(§4) To determine whether FN domains bind TGF-β1 and bFGF, equilibrium and kinetic binding was performed.

[3] = biological target: FGF-2 (Homo sapiens, UniProt P09038); assay: Plasmon resonance binding of FGF-2 to FN domains
Text: as §3

[4] = system: VEGF; assay: Plasmon resonance binding of VEGF to FN domains
Text: as §3

[5] = biological target: T1, PDGF-BB; assay: Surface plasmon resonance kinetic binding of PDGF-BB to FN domains
Text: as §3, with “activity. […]” for “activity.”

[6] = system: human dermal fibroblasts; assay: Type 1 collagen production by fibroblasts on FN domain coated plates preincubated with TGF-β1; type: cell-based; conditions: for type 1 collagen production in response to preincubated TGF-β1: plates coated with FNIII8-11 alone or with the named domain
Text: Therefore, we investigated whether it retained its activity while bound to recombinant FN functional domains. FNIII8-11 was adsorbed on plastic tissue culture dishes at a surface density to maximally affect the attachment and spreading of human dermal fibroblasts with or without the presence of adsorbed FNIII1-2. […] The maximum collagen secretion was approximately 25% of the amount observed when TGF-β1 remained in the medium at the concentrations indicated. […] The numbers of attached and spread cells were essentially identical when fibroblasts were cultures on plates coated with both FNIII8-11 and FNIII1-2 or FNIII8-11 alone. Similar data was obtained when fibroblasts were cultured on plates that had been coated with FNIII8-11 and FNIII12-V15 and then preincubated with TGF-β1.

[7] = system: mouse fibroblasts null for FN (FN−/−); assay: Survival of FN-null fibroblasts on FN domains with PDGF-BB; type: cell-based; conditions: for FN-null cell survival with PDGF: plastic precoated with 0.15 μM GST-tagged FNIII8-11 ± the named domain, or named protein, PDGF-BB added 1 day after plating, 3 days; for FN-null cell survival / proliferation with PDGF-BB: FNIII8-11 + the named domain, or named protein
Text: To further investigate the response of cells to PDGF-BB bound to FN domains, we investigated the survival response of mouse fibroblasts null for FN (FN−/−). First we determined the response of FN-null cells to PDGF-BB in the absence of serum or other sources of exogenous FN. […] […] […] Importantly, differential response of FN-null cells, plated on different FN domains, to PDGF-BB was not secondary to differences in attachment as judged by cell counts two hours after plating. The FNIII8-11 central cell binding domain was present in all circumstances.

[8] = system: GFs; assay: Growth factor binding to FN domains (GFs in general)
Text: as §1

[9] = system: ERK; assay: ERK response to PDGF-BB in presence and absence of FNIII1-2; type: cell-based; conditions: preliminary results
Experimental: In preliminary results investigating signal transduction pathway activation of growth factors in the presence of FN GF-binding peptides, the response of ERK to PDGF-BB in the presence and absence of FNIII1-2 was studied. Without FNIII1-2, the ERK response to PDGF-BB was maximum at 20 minutes and gradually diminished over four hrs. In the presence of FNIII 1-2, the ERK response to PDGF-BB, was about 25% greater and sustained for at least four hours.

[10] = system: fibroblast chemotaxis; assay: Fibroblast chemotaxis to GFs in the presence or absence of FN domains; type: cell-based; conditions: in solution
Experimental: To determine whether FN functional domains modulated TGF-β1, bFGF or PDGF-BB activity in solution, fibroblast chemotaxis was performed in response to the GFs in the presence or absence of FN domains.

[11] = system: CCL-64 mink lung cells; assay: Inhibition of [3H]-thymidine incorporation by CCL-64 cells by FN-adhered TGF-β; type: cell-based
[12] = biological target: EGF (Homo sapiens, UniProt P01133); assay: Binding of EGF to FN, FN domains and peptides
Text: as §3, §2, §4

[13] = biological target: FGF-1 (Homo sapiens, UniProt P05230); assay: Binding of FGF-1 to FN, FN domains and peptides
Experimental: as §2, §4

[14] = biological target: T2, TGF-β1; assay: Equilibrium binding of TGF-β1 to FN, FN domains and peptides; conditions: equilibrium binding
Experimental: These peptides represent domains that follow the sequence pattern [QN]-X(1,2)-[ST]-X(0,1)-[IG]-[QS]-[KRQ]-[YTM]-[IG]-X(4,5)-X(0,1)-[KR]-X(1,2)-X(1,2)-[RT]-X(1,2)-[KQTS]-X(2)-T and that bind TGF-β1 with a certain affinity. […] We know of no other peptides in the human genome database that follow this pattern.
as §4

[15] = biological target: TGF-α (Homo sapiens, UniProt P01135); assay: Binding of TGF-α to FN, FN domains and peptides
Experimental: as §2, §4

[16] = biological target: bFGF (Homo sapiens, UniProt P09038); assay: Equilibrium binding of bFGF (FGF-2) to FN, FN domains and peptides; conditions: equilibrium binding, intact FN; read-out: KD, bFGF (FGF-2) binding
Experimental: as §2, §4

[17] = biological target: PDGF-BB binding to FNIII1, FNIII12-14 and IIICS (Homo sapiens, UniProt P01127); assay: Inhibition of PDGF-BB binding to FN domains by FNIII1 peptides
Text: Next, we determined if PDGF-BB-binding peptides from FNIII1 could inhibit PDGF-BB binding to FNIII1, FNIII12-14 and IIICS. For initial experiments we selected peptide 1 and peptide 2. For control, we used scrambled peptide 1.

[18] = biological target: TGF-β1 binding to any recombinant FN domain (Homo sapiens, UniProt P01137); assay: Inhibition of TGF-β1 binding to recombinant FN domains
[19] = biological target: bFGF binding to any recombinant FN domain (Homo sapiens, UniProt P09038); assay: Inhibition of bFGF binding to recombinant FN domains
Sequence of bFGF binding to any recombinant FN domain (P09038 134-288 limits assumed): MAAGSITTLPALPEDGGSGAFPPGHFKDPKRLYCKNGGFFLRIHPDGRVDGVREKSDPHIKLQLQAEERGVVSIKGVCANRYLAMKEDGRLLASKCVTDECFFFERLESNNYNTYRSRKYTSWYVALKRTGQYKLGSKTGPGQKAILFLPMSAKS

T1 sequence (P01127 82-190 limits assumed): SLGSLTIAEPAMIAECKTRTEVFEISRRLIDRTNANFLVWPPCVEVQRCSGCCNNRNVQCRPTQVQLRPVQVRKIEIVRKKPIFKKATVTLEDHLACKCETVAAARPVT
Sequence of FGF-2 (P09038 143-288): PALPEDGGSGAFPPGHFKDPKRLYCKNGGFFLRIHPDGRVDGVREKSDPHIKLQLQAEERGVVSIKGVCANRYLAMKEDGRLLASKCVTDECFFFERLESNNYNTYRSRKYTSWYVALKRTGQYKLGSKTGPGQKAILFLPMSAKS
T2 sequence (P01137 279-390 limits assumed, species assumed): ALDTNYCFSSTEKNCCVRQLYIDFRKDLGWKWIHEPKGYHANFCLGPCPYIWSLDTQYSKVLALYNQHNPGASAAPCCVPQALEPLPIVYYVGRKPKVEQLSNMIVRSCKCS
Sequence of PDGF-BB binding to FNIII1, FNIII12-14 and IIICS (P01127 82-190 limits assumed): as the sequence (P01127 82-190 limits assumed) above
Sequence of FGF-1 (P05230 whole entry, species assumed, the tested form may be a part): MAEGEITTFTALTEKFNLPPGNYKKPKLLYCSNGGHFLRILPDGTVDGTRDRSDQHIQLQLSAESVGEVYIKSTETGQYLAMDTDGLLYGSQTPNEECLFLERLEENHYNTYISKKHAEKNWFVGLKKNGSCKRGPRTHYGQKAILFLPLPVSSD
Sequence of bFGF (P09038 143-288): as the sequence (P09038 143-288) above
Sequence of EGF (P01133 971-1023 limits assumed, species assumed): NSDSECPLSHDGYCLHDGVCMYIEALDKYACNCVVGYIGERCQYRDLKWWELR
Sequence of TGF-β1 binding to any recombinant FN domain (P01137 279-390 limits assumed): as the sequence (P01137 279-390 limits assumed, species assumed) above
Sequence of TGF-α (P01135 40-89 limits assumed, species assumed): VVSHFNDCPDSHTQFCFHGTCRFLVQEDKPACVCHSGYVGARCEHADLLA

Substance	PDGF-BB binding (in words) [1]	TGF-β1 binding (in words) [2]	FGF-2 binding (in words) [3]	VEGF binding (in words) [4]	PDGF-BB binding (in words) [5]	other results
anastellin: 76-aa peptide within FNIII1; anti-angiogenic, promotes FN polymerization	demonstrated PDGF-BB binding	bound	bound	all but VEGF bound	bound	
FNIII8-11: central cell-binding domain of FN containing RGD	did not	None of the GFs detectably bound	None of the GFs detectably bound	None of the GFs detectably bound	None of the GFs detectably bound	type 1 collagen production in response to preincubated TGF-β1 [6]: No increase in collagen synthesis; FN-null cell survival with PDGF [7]: failed to survive; support of FN-null fibroblast survival in the presence of PDGF-BB ([7]; substrate coating, FNIII8-11 alone or + named domain): did not support cell survival; binding of any GF (in words) [8]: In no case did any GF bind
FNIII1-11: recombinant FN type III repeats 1-11		bound	did not	did not	bound	FN-null cell survival in the absence of PDGF-BB [7]: survived; FN-null cell survival / proliferation with PDGF-BB [7]: robust proliferation; FN-null cell survival with PDGF [7]: The best survival response
FN668-704: one half of the 76 aa FNIII1 peptide FN630-704	demonstrated PDGF-BB binding					
FN70: 70 kDa amino terminus of FN, includes fibrin and gelatin binding domains	did not	None of the GFs detectably bound	None of the GFs detectably bound	None of the GFs detectably bound	None of the GFs detectably bound	binding of any GF (in words) [8]: In no case did any GF bind
FNIII1-2: recombinant FN type III repeats 1-2		all four GFs bound	all four GFs bound	all four GFs bound	all four GFs bound	Kd [1]: 37 nM; type 1 collagen production in response to preincubated TGF-β1 [6]: produced type 1 collagen in a dose response fashion; maximum collagen secretion, % of amount when TGF-β1 remained in the medium ([6]; plates coated with FNIII8-11 and FNIII1-2, preincubated with TGF-β1): approximately 25%; ERK response to PDGF-BB, increase versus without FNIII1-2 [9]: about 25%; duration of sustained ERK response to PDGF-BB [9]: at least four; FN-null cell survival / proliferation with PDGF-BB [7]: enhance survival; chemotactic activity when assayed alone [10]: no chemotactic activity; enhancement of chemotactic activity of TGF-β1, bFGF and PDGF-BB [10]: enhanced the chemotactic activity; Kd ([5]; kinetic binding): 9.1 nM
fibronectin [intact FN]						Kd [1]: 49 nM; functional activity of TGF-β adhered to FN [11]: retained full functional activity; EGF binding (in words) [12]: did not; FGF-1 binding (in words) [13]: did not; Kd [14]: 53 nM; TGF-α binding (in words) [15]: did not; FN-null cell survival / proliferation with PDGF-BB [7]: robust proliferation; Kd [16]: 44 nM
FN630-667: one half of the 76 aa FNIII1 peptide FN630-704	demonstrated PDGF-BB binding					
FNIII8-V15: FN type III repeats 8 to V15						FN-null cell survival / proliferation with PDGF-BB [7]: robust proliferation
QLISIQQYGHQEVTRFDFTTTSTST [peptide 2]						inhibition of PDGF-BB binding to FNIII1, FNIII12-14 and IIICS [17]: neither peptide 2, nor the scramble varient of peptide 1 (FN634-658s), demonstrated inhibition
QPSHISKY (Synthetically generated peptide) [FN634-641, 8 aa peptide from FNIII1]						TGF-β1 binding (in words) [14]: minimal binding activity
FNIII2: recombinant second FN type III repeat		all four GFs bound	all four GFs bound	all four GFs bound	all four GFs bound	
QPSHISKYILRWRPKNSVGRWKEAT [peptide 1]						Kd [1]: 250 nM; inhibition of PDGF-BB binding to FNIII1, FNIII12-14 and IIICS [17]: marked inhibition; inhibition of TGF-β1 binding to any recombinant FN domain [18]: completely inhibited; inhibition of bFGF binding to any recombinant FN domain [19]: completely inhibited
FNIII1: recombinant first FN type III repeat		all four GFs bound	all four GFs bound	all four GFs bound	all four GFs bound	FN-null cell survival with PDGF [7]: increased survival
